Data reported in US20210052695A1 (CAMBRIDGE ENTERPRISE, published 2021).
Each block holds one binder with its values, some of them ahead of it. Ends that are not written are not given here. * marks the point of attachment. TAMRA = 5-carboxytetramethylrhodamine, CN(C)c1ccc2c(-c3ccc(C(=O)*)cc3C(=O)[O-])c3ccc(N(C)C)cc3[o+]c2c1

Assays:
[1] = target: T1, HLA-A*68:02 expressed on the cell surface (HeLaM cells, or HeLaM-HLA-ABC^KO cells reconstituted with … (human)); assay: flow cytometry of fluorescent peptide on transduced HeLaM-TAPBPR^KO cells
T1 construct: whole, on cells; Carries the cells' own, unnamed peptides before exchange; also called HLA-A*A68:02

[2] = target: T1, HLA-A*68:02 expressed on the cell …; assay: flow cytometry of TAPBPR on HeLaM cells without surface GFP
[3] = target: T2, UDP-glucose:glycoprotein glucosyltransferase 1 (UGT1) (UniProt Q9NYU2 43-1555); assay: immunoprecipitation of the intracellular TAPBPR pool, Western blot for UGT1
T2 construct: Detected by Western blot in TAPBPR immunoprecipitates
T2 sequence (Q9NYU2 43-1555 limits assumed): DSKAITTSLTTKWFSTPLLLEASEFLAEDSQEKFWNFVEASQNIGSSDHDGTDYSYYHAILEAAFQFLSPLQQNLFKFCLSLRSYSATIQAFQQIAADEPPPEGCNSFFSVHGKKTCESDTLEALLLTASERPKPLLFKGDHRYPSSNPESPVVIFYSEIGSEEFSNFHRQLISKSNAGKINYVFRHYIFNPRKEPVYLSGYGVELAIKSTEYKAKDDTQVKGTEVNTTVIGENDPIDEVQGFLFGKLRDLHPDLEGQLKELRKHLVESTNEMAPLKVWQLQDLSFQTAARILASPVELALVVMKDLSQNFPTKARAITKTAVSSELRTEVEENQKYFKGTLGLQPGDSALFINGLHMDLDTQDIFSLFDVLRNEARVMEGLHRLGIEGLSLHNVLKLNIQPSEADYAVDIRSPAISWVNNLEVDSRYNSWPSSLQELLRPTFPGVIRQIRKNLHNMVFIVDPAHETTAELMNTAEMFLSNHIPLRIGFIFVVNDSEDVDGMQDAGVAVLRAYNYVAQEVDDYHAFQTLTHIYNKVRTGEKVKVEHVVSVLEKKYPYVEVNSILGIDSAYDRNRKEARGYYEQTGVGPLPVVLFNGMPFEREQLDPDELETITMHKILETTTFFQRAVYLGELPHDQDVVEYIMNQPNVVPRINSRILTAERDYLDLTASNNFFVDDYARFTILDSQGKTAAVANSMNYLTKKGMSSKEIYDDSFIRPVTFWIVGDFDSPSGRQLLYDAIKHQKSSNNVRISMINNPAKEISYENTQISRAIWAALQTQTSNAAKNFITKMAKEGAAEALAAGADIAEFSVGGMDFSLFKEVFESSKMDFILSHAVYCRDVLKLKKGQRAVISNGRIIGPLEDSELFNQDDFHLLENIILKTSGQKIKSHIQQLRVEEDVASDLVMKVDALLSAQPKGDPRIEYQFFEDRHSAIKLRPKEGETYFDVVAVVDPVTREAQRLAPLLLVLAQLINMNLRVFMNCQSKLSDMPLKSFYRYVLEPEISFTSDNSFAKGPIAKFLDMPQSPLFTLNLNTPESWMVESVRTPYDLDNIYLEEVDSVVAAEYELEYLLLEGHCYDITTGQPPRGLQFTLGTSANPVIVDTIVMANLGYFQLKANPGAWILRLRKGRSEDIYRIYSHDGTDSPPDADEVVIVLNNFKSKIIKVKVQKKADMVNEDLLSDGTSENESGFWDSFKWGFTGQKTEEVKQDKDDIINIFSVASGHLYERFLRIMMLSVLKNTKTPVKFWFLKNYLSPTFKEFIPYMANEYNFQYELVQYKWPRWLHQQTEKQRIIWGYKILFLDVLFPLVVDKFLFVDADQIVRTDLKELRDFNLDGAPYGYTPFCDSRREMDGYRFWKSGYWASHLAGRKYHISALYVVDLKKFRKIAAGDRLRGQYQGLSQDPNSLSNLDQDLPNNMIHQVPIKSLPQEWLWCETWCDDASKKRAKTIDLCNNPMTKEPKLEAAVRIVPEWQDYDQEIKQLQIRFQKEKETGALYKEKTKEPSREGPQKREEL

[4] = target: T1, HLA-A*68:02 expressed on the cell …; assay: flow cytometry with PeTe-4 on HeLaM, HeLaM-HLA-ABC^KO and HLA-A*68:02 reconstituted cells, 100 nM protein, 15 min at 37° C.
[5] = target: T1, HLA-A*68:02 expressed on the cell …; assay: cell-based peptide exchange on HeLa^KOTAPBPR^WT cells, displacement of fluorescent peptide, flow cytometry
[6] = target: T1, HLA-A*68:02 expressed on the cell …; assay: flow cytometry of fluorescent peptide on IFN-γ treated HeLaM cell lines, 15 min at 37° C.
[7] = target: T1, HLA-A*68:02 expressed on the cell …; assay: cell-based peptide exchange: no dissociation of fluorescent peptide from HLA-A*68:02 on HeLa^KOTAPBPR^WT cells
[8] = target: T1, HLA-A*68:02 expressed on the cell …; assay: flow cytometry, time course with 10 nM fluorescent peptide (FIG. 1e)
[9] = target: T1, HLA-A*68:02 expressed on the cell …; assay: flow cytometry, dose response of fluorescent peptide on HeLaM cell lines (FIG. 1d)

binding result [2]: no binding (tested: 100 nM)
B1: TAPBPR-GFPNB fusion protein (soluble TAPBPR fused to a nanobody specific for GFP, long linker) (other)
chain: KPHPAEGQWRAVDVVLDCFLVKDGAHRGALASSEDRARASLVLKQVPVLDDGSLEDFTDFQGGTLAQDDPPIIFEASVDLVQIPQAEALLHADCSGKEVTCEISRYFLQMTETTVKTAAWFMANVQVSGGGPSISLVMKTPRVAKNEVLWHPTLNLPLSPQGTVRTAVEFQVMTQTQSLSFLLGSSASLDCGFSMAPGLDLISVEWRLQHKGRGQLVYSWTAGQGQAVRKGATLEPAQLGMARDASLTLPGLTIQDEGTYICQITTSLYRAQQIIQLNIQASPKVRLSLANEALLPTLICDIAGYYPLDVVVTWTREELGGSPAQVSGASFSSLRQSVAGTYSISSSLTAEPGSAGATYTCQVTHISLEEPLGASTQVVPPERRHVGGGGSGGGGSGGGGSTSQVQLVESGGALVQPGGSLRLSCAASGFPVNRYSMRWYRQAPGKEREWVAGMSSAGDRSSYEDSVKGRFTISRDDARNTVYLQMNSLKPEDTAVYYCNVNVGFEYWGQGTQVTVSSK
notes: 21 aa leader left out; also called sTAPBPR-linker-GFPNB; sTAPBPR-GFP sdAb

binding result [7]: no binding
Binder: EGVSEQSNG (also called ETVΔ2/9)

binding result [5]: binds
Binder: ETVSEQSNV [ETVSEQSNV (unlabeled HLA-A*68:02-binding peptide)]

Continued, binder first:

Binder: YVVPFVAK(TAMRA)V [YVVPFVAK*V (fluorescent variant of YVVPFVAKV)]
fold less exogenous peptide binding on tapasin^PM cells than on TAPBPR^PM cells [1]: ~10 times

B2: full-length TAPBPR^WT over-expressed in HeLaM-TAPBPR^KO cells (other)
chain: KPHPAEGQWRAVDVVLDCFLVKDGAHRGALASSEDRARASLVLKQVPVLDDGSLEDFTDFQGGTLAQDDPPIIFEASVDLVQIPQAEALLHADCSGKEVTCEISRYFLQMTETTVKTAAWFMANVQVSGGGPSISLVMKTPRVAKNEVLWHPTLNLPLSPQGTVRTAVEFQVMTQTQSLSFLLGSSASLDCGFSMAPGLDLISVEWRLQHKGRGQLVYSWTAGQGQAVRKGATLEPAQLGMARDASLTLPGLTIQDEGTYICQITTSLYRAQQIIQLNIQASPKVRLSLANEALLPTLICDIAGYYPLDVVVTWTREELGGSPAQVSGASFSSLRQSVAGTYSISSSLTAEPGSAGATYTCQVTHISLEEPLGASTQVVPPERRTALGVIFASSLFLLALMFLGLQRRQAPTGLGLLQAERWETTSCADTQSSHLHEDRTARVSQPS
notes: V41_G151_V169 polymorphisms as used in the studies; also called surface TAPBPR; HeLa^KOTAPBPR^WT
binding result [3]: binds

B3: soluble TAPBPR^WT (secreted luminal domain of human TAPBPR, C-terminally His-tagged) (other)
chain: KPHPAEGQWRAVDVVLDCFLVKDGAHRGALASSEDRARASLVLKQVPVLDDGSLEDFTDFQGGTLAQDDPPIIFEASVDLVQIPQAEALLHADCSGKEVTCEISRYFLQMTETTVKTAAWFMANVQVSGGGPSISLVMKTPRVAKNEVLWHPTLNLPLSPQGTVRTAVEFQVMTQTQSLSFLLGSSASLDCGFSMAPGLDLISVEWRLQHKGRGQLVYSWTAGQGQAVRKGATLEPAQLGMARDASLTLPGLTIQDEGTYICQITTSLYRAQQIIQLNIQASPKVRLSLANEALLPTLICDIAGYYPLDVVVTWTREELGGSPAQVSGASFSSLRQSVAGTYSISSSLTAEPGSAGATYTCQVTHISLEEPLGASTQVVPPERR
notes: Made in 293T cells with the PiggyBac system and purified on Ni Sepharose; also called sol WT; exogenous TAPBPR^WT; not shown: C-terminal His tag
binding result [4]: binds

Binder: YVVPFVAKV [YVVPFVAKV (unlabeled peptide)]
binding result [5]: binds

Binder: EGVSK(TAMRA)QSNG (also called ETVΔ2/9) [EGVSK*QSNG (fluorescent non-binding variant with the anchor residues mutated)]
binding result [6]: no binding (tested: 10 nM)

Binder: ETVSK(TAMRA)QSNV [ETVSK*QSNV (fluorescent variant of the neoantigen …)]
fold increase in fluorescent peptide bound to HeLaKO-TAPBPR^WT against the HeLaM and HeLaM^KO controls after 60 min [8]: 21 fold | fold less exogenous peptide binding on tapasin^PM cells than on TAPBPR^PM cells [1]: ~10 times | fold less efficient peptide binding to cells lacking surface TAPBPR than TAPBPR-promoted binding [9]: ~120 times
